Laboratory results from IntAct's records for PubMed 15086341.

B1: Lysine-specific demethylase hairless (Mus musculus), Q61645 (parent)
chain: MESMPSFLKDTPAWEKTAPVNGIVGQEPGTSPQDGLRHGALCLGEPAPFWRGVLSTPDSWLPPGFLQGPKDTLSLVEGEGPRNGERKGSWLGGKEGLRWKEAMLAHPLAFCGPACPPRYGPLIPEHSGGHPKSDPVAFRPLHCPFLLETKILERAPFWVPTCLPPYLMSSLPPERPYDWPLAPNPWVYSGSQPKVPSAFGLGSKGFYHKDPNILRPAKEPLAESGMLGLAPGGHLQQACESEGPSLHQRDGETGAGRQQNLCPVFLGYPDTVPRAPWPSCPPGLVHSLGNIWAGPGSNSLGYQLGPPATPRCPSPGPPTPPGGCCSSHLPAREGDLGPCRKCQDSPEGGSSGPGESSEERNKADSRACPPSHHTKLKKTWLTRHSEQFECPGGCSGKEESPATGLRALKRAGSPEVQGASRGPAPKRPSHPFPGTGRQGARAWQETPETIIGSKAEAEQQEEQRGPRDGRIRLQESRLVDTSCQHHLAGVTQCQSCVQAAGEVGVLTGHSQKSRRSPLEEKQLEEEDSSATSEEGGGGPGPEASLNKGLAKHLLSGLGDRLCRLLRKEREALAWAQREGQGPAMTEDSPGIPHCCSRCHHGLFNTHWRCSHCSHRLCVACGRIAGAGKNREKTGSQEQHTDDCAQEAGHAACSLILTQFVSSQALAELSTVMHQVWAKFDIRGHCFCQVDARVWAPGDGGQQKEPTEKTPPTPQPSCNGDSNRTKDIKEETPDSTESPAEDGAGRSPLPCPSLCELLASTAVKLCLGHDRIHMAFAPVTPALPSDDRITNILDSIIAQVVERKIQEKALGPGLRAGSGLRKGLSLPLSPVRTRLSPPGALLWLQEPRPKHGFHLFQEHWRQGQPVLVSGIQKTLRLSLWGMEALGTLGGQVQTLTALGPPQPTNLDSTAFWEGFSHPETRPKLDEGSVLLLHRTLGDKDASRVQNLASSLPLPEYCAHQGKLNLASYLPLGLTLHPLEPQLWAAYGVNSHRGHLGTKNLCVEVSDLISILVHAEAQLPPWYRAQKDFLSGLDGEGLWSPGSQTSTVWHVFRAQDAQRIRRFLQMVCPAGAGTLEPGAPGSCYLDAGLRRRLREEWGVSCWTLLQAPGEAVLVPAGAPHQVQGLVSTISVTQHFLSPETSALSAQLYHQGASLPPDHRMLYAQMDRAVFQAVKAAVGALQEAK

Variants of: B1
Details: with Thrb

Variant	effect of a mutation on the interaction
D1005N	with no effect
